What all share (assay type): cell-based
The subject of experiment [1] is Aspergillus flavus. The experiment can be described thus: Dose-response growth assay in 96 well plates, A. flavus in RPMI-MOPS. As to conditions: A. flavus, 5,000 spores, absorbance 600 nm. Here is the method:
A. flavus A11 spores were seeded on 10 cm plates of YAG-agarose for 3-4 days in a humidified incubator at 30° C. After sporulation, fresh spores were collected with 5 ml DDW+0.2% Tween. Spores were then centrifuged at room temperatures (5 min, 4,000 RPM), and suspended in 5 ml DDW. The suspension was termed “A. flavus fresh stock”.
A. flavus fresh stock was diluted ×1000 using DDW, and the spores were counted using a cytometer to determine the stock spores' concentration. A. flavus fresh stock was used for one week after spore production before disposal.
RPMI-MOPS (RPMI Powder, 165 mM MOPS, and Pen/Strep solution (x100)) was inoculated with either 50,000 spores/ml of A. flavus, or 1 colony/10 ml of C. albicans. The inoculated RPMI-MOPS was poured into a Nunclone™ coated 96-well plate (100 μl per well), with the different treatments and controls. The 96-well plate was then incubated in a shaker/incubator plate-reader at 30° C. where the absorbance (600 nm) was monitored and measured every 10 minutes.
In order to evaluate the ability of recombinant His-psoriasin to inhibit the growth of Aspergillus flavus, 5,000 spores were incubated in a RPMI-MPS medium with variable concentrations of psoriasin added to each well. Fungi growth was monitored using an absorbance plate reader every 10 minutes at 600 nm.

Experiment [2] relates to Aspergillus flavus. The experiment can be described thus: Chickpea paste assay inoculated with A. flavus. The following applies: for fungal load count on YAG-agarose plates: 30° C, after 48 and 72 hours. Here is the method:
Sterilized and frozen chickpeas (100 g) were boiled for 15 minutes and ground using a blender. The ground chickpeas were treated with chloramphenicol (34 μg/μl) and tetracycline (12.5 μg/μl) to prevent microbial growth. The chickpeas were then inoculated with 500 spores/g of A. flavus and divided into groups of 7 g, and each group was treated with 7 ml of PBS×1 with different His-psoriasin concentrations to reach final concentrations of 0 μM, 50 μM, 100 μM, and 200 μM. The different groups were then divided into 1 g of treated and inoculated chickpeas in 6 well plates (1 g/well) and incubated in a humidified incubator at 30° C. Every day, 1 g of treated chickpeas from each group was diluted in PBS×1 and seeded on YAG-agarose plates to count colonies and calculate the fungi development through time.
For the visual evaluation of the treated/non-treated and inoculated/not-inoculated samples, the samples were prepared in the same way, but incubated at room temperatures and divided into groups of 3 g each.
Chickpeas were boiled and ground and then treated with a combination of chloramphenicol and tetracycline antibiotics (to eliminate bacterial growth) at final concentrations of 34 μg/μl and 12.5 μg/μl, respectively. Samples were divided into ‘inoculated with Aspergillus flavus’ and ‘non-inoculated’, and ‘treated’ and ‘non-treated’ with 180 μM His-psoriasin. All samples were placed in 20° C.
In a follow-up experiment, inoculated chickpea paste samples were treated with three different recombinant His-psoriasin concentrations, namely 50 μM, 100 μM, and 200 μM, and incubated at 30° C. Fungal load count was performed on YAG-agarose plates with antibiotics (chloramphenicol (34 μg/μl) and tetracycline (12.5 μg/μl)) to prevent bacterial growth after 48 and 72 hours.

The subject of experiment [3] is microbial growth in bread/rolls. The experiment can be described thus: Microbial growth in baked bread/rolls stored at room temperature. The following applies: 0.3% psoriasin admixed with dough before baking, after 10 days at room temperature. Here is the method: Bread or roll dough prepared with 150 ml PBS, 0.3% psoriasin, (1.5 g protein in 150 ml DDW) or 0.3% calcium propionate (1.5 g calcium propionate in 150 ml DDW) was baked in a bread maker according to the manufacturer protocol using the following recipe: 180 ml water (or 150 ml PBS+30 ml water), 1 teaspoon of salt, 2 spoons of sugar, 2 spoons of oil, 300 g of flour, and 1 teaspoon of yeast. Following baking, the bread was sliced, each slice/roll was weighed and kept in a separate small smasher bag until analysis.
Bread/rolls were stored at room temperature. Each day, a roll/slice of bread from each group was mixed with autoclaved 1×PBS at a weight ratio of 1:10 to the weighted piece of bread in the bag. The bread was then smashed in a smasher at normal speed for 120 seconds. 10 mL from the smashed bread was removed, vortexed, and diluted with autoclaved 1×PBS as necessary. Samples were plated on both PDA and LB plates and incubated at 30° C. and 37° C., respectively. All samples were performed in duplicate.

B1: psoriasin: Recombinant human psoriasin (S100a7) containing a histidine tag, amino acid sequence SEQ ID NO: 11, expression vector pET-28a (protein, listed as Homo sapiens)
chain: MSNTQAERSIIGMIDMFHKYTRRDDKIEKPSLLTMMKENFPNFLSACDKKGTNYLADVFEKKDKNEDKKIDFSEFLSLLGDIATDYHKQSHGAAPCSGGSQ
Regarding B1, in the experiment on Aspergillus flavus [1], the “psoriasin concentration above which no apparent growth was measured” value is given as “higher than 375 nM”. In addition, in the experiment on Aspergillus flavus [2] (180 μM, 20° C, after 10 days), the “signs of fungal growth in chickpea paste (visual)” value was “did not show any signs of fungal growth”. The “fungal load count on YAG-agarose plates” value is “No fungi had developed” in the experiment on Aspergillus flavus [2] (200 μM) and “reduced growth was observed” in the experiment on Aspergillus flavus [2] (lower concentrations (50 μM, 100 μM)). The “microbial growth in rolls” value in experiment [3] is reported as “no microbial growth was detected”.

The record behind these values is patent US20260231968A1, “AN ECO-FRIENDLY, SUSTAINABLE FOOD PRESERVATIVE” (priority 2023, published 2026).
